Measurements as given in article PMC8151509 (International Journal of Molecular Sciences, 2021).
Substitutions are numbered along the chain they refer to.

B1: LAIR-1 Ig-like domain, wild type (domain or fragment, human, UniProt Q6GTX8 22-122, looked up)
chain: QEEDLPRPSISAEPGTVIPLGSHVTFVCRGPVGVQTFRLERDSRSTYNDTEDVSQASPSESEARFRIDSVREGNAGLYRCIYYKPPKWSEQSDYLELLVKE
notes: Leukocyte associated immunoglobulin-like receptor 1 (LAIR-1; CD305), C2-type Ig-like domain, residues 22 to 122; pET28a construct; intact disulfide bond by ESI-MS; also called LAIR-1 WT; soluble LAIR-1 Ig-like domain
B2: LAIR-1 Ig-like domain E111K (domain or fragment, human, UniProt Q6GTX8 22-122, looked up)
chain: B1 chain with E90K
notes: LAIR-1 (CD305), C2-type Ig-like domain, residues 22 to 122
B3: LAIR-1 Ig-like domain E72K (domain or fragment, human, UniProt Q6GTX8 22-122, looked up)
chain: B1 chain with E51K
notes: as for B2
B4: LAIR-1 Ig-like domain P107R (domain or fragment, human, UniProt Q6GTX8 22-122, looked up)
chain: B1 chain with P86R
notes: as for B2
B5: LAIR-1 Ig-like domain I102L (domain or fragment, human, UniProt Q6GTX8 22-122, looked up)
chain: B1 chain with I81L
notes: as for B2
B6: recombinant C1r2s2 tetramer (C1s, C1rS637A) (complex)
chain 1: SIPIPQKLFGEVTSPLFPKPYPNNFETTTVITVPTGYRVKLVFQQFDLEPSEGCFYDYVKISADKKSLGRFCGQLGSPLGNPPGKKEFMSQGNKMLLTFHTDFSNEENGTIMFYKGFLAYYQAVDLDECASRSKSGEEDPQPQCQHLCHNYVGGYFCSCRPGYELQEDTHSCQAECSSELYTEASGYISSLEYPRSYPPDLRCNYSIRVERGLTLHLKFLEPFDIDDHQQVHCPYDQLQIYANGKNIGEFCGKQRPPDLDTSSNAVDLLFFTDESGDSRGWKLRYTTEIIKCPQPKTLDEFTIIQNLQPQYQFRDYFIATCKQGYQLIEGNQVLHSFTAVCQDDGTWHRAMPRCKIKDCGQPRNLPNGDFRYTTTMGVNTYKARIQYYCHEPYYKMQTRAGSRESEQGVYTCTAQGIWKNEQKGEKIPRCLPVCGKPVNPVEQRQRIIGGQKAKMGNFPWQVFTNIHGRGGGALLGDRWILTAAHTLYPKEHEAQSNASLDVFLGHTNVEELMKLGNHPIRRVSVHPDYRQDESYNFEGDIALLELENSVTLGPNLLPICLPDNDTFYDLGLMGYVSGFGVMEEKIAHDLRFVRLPVANPQACENWLRGKNRMDVFSQNMFCAGHPSLKQDACQGDAGGVFAVRDPNTDRWVATGIVSWGIGCSRGYGFYTKVLNYVDWIKKEMEEED
chain 2: EPTMYGEILSPNYPQAYPSEVEKSWDIEVPEGYGIHLYFTHLDIELSENCAYDSVQIISGDTEEGRLCGQRSSNNPHSPIVEEFQVPYNKLQVIFKSDFSNEERFTGFAAYYVATDINECTDFVDVPCSHFCNNFIGGYFCSCPPEYFLHDDMKNCGVNCSGDVFTALIGEIASPNYPKPYPENSRCEYQIRLEKGFQVVVTLRREDFDVEAADSAGNCLDSLVFVAGDRQFGPYCGHGFPGPLNIETKSNALDIIFQTDLTGQKKGWKLRYHGDPMPCPKEDTPNSVWEPAKAKYVFRDVVQITCLDGFEVVEGRVGATSFYSTCQSNGKWSNSKLKCQPVDCGIPESIENGKVEDPESTLFGSVIRYTCEEPYYYMENGGGGEYHCAGNGSWVNEVLGPELPKCVPVCGVPREPFEEKQRIIGGSDADIKNFPWQVFFDNPWAGGALINEYWVLTAAHVVEGNREPTMYVGSTSVQTSRLAKSKMLTPEHVFIHPGWKLLEVPEGRTNFDNDIALVRLKDPVKMGPTVSPICLPGTSSDYNLMDGDLGLISGWGRTEKRDRAVRLKAARLPVAPLRKCKEVKVEKPTADAEAYVFTPNMICAGGEKGMDSCKGDSGGAFAVQDPNDKTKFYAAGLVSWGPQCGTYGLYTRVKNYVDWIMKTMQENSTPRED
notes: Complement C1r protease; Complement C1s protease; also called C1r2s2 proteases tetramer; source: recombinant, purified according to published procedures [42]; copies: 2 + 2

What was measured:
Details in all cases: both partners purified
serum-derived C1q [1] = molecular target: T1, serum-derived C1q (human, UniProt P02745 23-245); P02746 28-253; P02747 29-245, hydroxyprolines in the collagen-like region (shown as O in Figure 8A) | hydroxyprolines in the collagen-like region (shown as O in Figure 8A) | hydroxyprolines in the collagen-like region (shown as O …); assay: SPR; LAIR-1 Ig-like domain injected at increasing concentrations (4-128, 4-256 or 3.125-400 µM) over immobilized C1q, rC1q variants, C1qCLR_nc2 variants or C1qstem_nc2 (CM5, amine coupling); 25 °C; 50 mM Tris, 150 mM NaCl, 2 mM CaCl2, 0.05% surfactant P20, pH 7.5; KD from Req versus concentration, steady-state model
T1 construct: Complement C1q, A chain; Complement C1q, B chain; Complement C1q, C chain; 18 polypeptide chains, six A-B-C heterotrimers, 460 kDa; also called sC1q; source: purified from human serum; copies: 6 + 6 + 6

[2] = molecular target: T2, recombinant C1q mutant with an alanine substitution of LysA59, LysB61 and LysC58 (UniProt P02745 23-245; P02746 28-253; P02747 29-245, alanine substitution of LysA59 | alanine substitution of LysB61 | alanine …); assay: as above
T2 construct: Complement C1q, A chain; Complement C1q, B chain; Complement C1q, C chain; also called rC1q ABC; source: recombinant, produced and purified as reported in Bally et al. [20]; copies: + +

[3] = molecular target: T3, recombinant wild-type C1q (UniProt P02745 23-245; P02746 28-253; P02747 29-245); assay: as above
T3 construct: Complement C1q, A chain; Complement C1q, B chain; Complement C1q, C chain; also called rC1q WT; source: recombinant, produced and purified as reported in Bally et al. [20]; copies: + +

serum-derived C1q [4] = molecular target: T1, serum-derived C1q; assay: SPR; LAIR-1 Ig-like domain (WT or mutant) injected at 10 µM over C1q or C1q fragment amine-coupled to a CM5 chip (sC1q 14,000 RU, sCLR 6000 RU, sGR 1500 RU); 25 °C; 50 mM Tris, 150 mM NaCl, 2 mM CaCl2, 0.05% surfactant P20, pH 7.5; association 180 s; mutants as percentage of the WT response at equilibrium
serum-derived C1q [5] = molecular target: T1, serum-derived C1q; assay: SPR; sC1q (1 nM), alone or preincubated with C1r2s2 at increasing molar ratios (1-5; 15 min at 25 °C), injected over immobilized LAIR-1 Ig-like domain (330 RU); 50 mM Tris, 150 mM NaCl, 2 mM CaCl2, 0.05% surfactant P20, pH 7.5; 25 °C; avidity effects

T1 sequence (P02745 23-245, chain 1 of 3): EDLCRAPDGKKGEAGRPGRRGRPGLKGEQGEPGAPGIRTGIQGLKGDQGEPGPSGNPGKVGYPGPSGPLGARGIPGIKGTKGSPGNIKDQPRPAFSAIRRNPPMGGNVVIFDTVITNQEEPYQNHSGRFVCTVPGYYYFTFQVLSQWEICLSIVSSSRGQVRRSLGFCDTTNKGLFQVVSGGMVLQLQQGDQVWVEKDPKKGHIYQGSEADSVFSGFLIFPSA
T1 sequence (P02746 28-253, chain 2 of 3): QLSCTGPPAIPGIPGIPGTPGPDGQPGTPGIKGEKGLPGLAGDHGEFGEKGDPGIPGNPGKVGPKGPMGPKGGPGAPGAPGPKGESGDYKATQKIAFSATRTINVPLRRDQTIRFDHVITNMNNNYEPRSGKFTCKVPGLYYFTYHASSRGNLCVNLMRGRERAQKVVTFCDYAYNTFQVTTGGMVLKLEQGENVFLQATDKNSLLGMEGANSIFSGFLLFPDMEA
T1 sequence (P02747 29-245, chain 3 of 3): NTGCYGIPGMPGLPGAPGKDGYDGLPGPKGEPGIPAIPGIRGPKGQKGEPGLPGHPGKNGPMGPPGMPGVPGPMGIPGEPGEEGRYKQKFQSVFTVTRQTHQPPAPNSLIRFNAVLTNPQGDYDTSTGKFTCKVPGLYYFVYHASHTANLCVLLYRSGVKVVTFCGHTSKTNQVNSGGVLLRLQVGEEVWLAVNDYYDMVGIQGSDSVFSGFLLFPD
T3 sequence (P02745 23-245, chain 1 of 3): as the sequence (P02745 23-245, chain 1 of 3) above
T3 sequence (P02746 28-253, chain 2 of 3): as the sequence (P02746 28-253, chain 2 of 3) above
T3 sequence (P02747 29-245, chain 3 of 3): as the sequence (P02747 29-245, chain 3 of 3) above
T2 sequence (P02745 other isoform, or with tags, fused parts or gaps with the stated changes, chain 1 of 3): as the sequence (P02745 23-245, chain 1 of 3) above, with K59A counted along it
T2 sequence (P02746 other isoform, or with tags, fused parts or gaps with the stated changes, chain 2 of 3): as the sequence (P02746 28-253, chain 2 of 3) above, with K61A counted along it
T2 sequence (P02747 other isoform, or with tags, fused parts or gaps with the stated changes, chain 3 of 3): as the sequence (P02747 29-245, chain 3 of 3) above, with K58A counted along it

Binder | binding result (serum-derived C1q [4]) | further results
B1 | – | Kd (serum-derived C1q [1]): 112 µM; Kd [2]: 132 µM; Kd [3]: 99.5 µM
B2 | binds | –
B3 | binds | –
B4 | binds | –
B5 | binds | –
B6 | – | binding result (serum-derived C1q [5]): binds
